Laboratory results reported in patent US20020012949A1, “Assay systems for leptin-enhancing agents” (priority 1997, published 2002).

Target: T1, OB-R (Homo sapiens, UniProt P48357)
T1 construct: The cytoplasmic domain and full-length human OB-R was cloned by PCR; expressed in transfected cells; host or cells: COS-7
T1 sequence (P48357 22-1165): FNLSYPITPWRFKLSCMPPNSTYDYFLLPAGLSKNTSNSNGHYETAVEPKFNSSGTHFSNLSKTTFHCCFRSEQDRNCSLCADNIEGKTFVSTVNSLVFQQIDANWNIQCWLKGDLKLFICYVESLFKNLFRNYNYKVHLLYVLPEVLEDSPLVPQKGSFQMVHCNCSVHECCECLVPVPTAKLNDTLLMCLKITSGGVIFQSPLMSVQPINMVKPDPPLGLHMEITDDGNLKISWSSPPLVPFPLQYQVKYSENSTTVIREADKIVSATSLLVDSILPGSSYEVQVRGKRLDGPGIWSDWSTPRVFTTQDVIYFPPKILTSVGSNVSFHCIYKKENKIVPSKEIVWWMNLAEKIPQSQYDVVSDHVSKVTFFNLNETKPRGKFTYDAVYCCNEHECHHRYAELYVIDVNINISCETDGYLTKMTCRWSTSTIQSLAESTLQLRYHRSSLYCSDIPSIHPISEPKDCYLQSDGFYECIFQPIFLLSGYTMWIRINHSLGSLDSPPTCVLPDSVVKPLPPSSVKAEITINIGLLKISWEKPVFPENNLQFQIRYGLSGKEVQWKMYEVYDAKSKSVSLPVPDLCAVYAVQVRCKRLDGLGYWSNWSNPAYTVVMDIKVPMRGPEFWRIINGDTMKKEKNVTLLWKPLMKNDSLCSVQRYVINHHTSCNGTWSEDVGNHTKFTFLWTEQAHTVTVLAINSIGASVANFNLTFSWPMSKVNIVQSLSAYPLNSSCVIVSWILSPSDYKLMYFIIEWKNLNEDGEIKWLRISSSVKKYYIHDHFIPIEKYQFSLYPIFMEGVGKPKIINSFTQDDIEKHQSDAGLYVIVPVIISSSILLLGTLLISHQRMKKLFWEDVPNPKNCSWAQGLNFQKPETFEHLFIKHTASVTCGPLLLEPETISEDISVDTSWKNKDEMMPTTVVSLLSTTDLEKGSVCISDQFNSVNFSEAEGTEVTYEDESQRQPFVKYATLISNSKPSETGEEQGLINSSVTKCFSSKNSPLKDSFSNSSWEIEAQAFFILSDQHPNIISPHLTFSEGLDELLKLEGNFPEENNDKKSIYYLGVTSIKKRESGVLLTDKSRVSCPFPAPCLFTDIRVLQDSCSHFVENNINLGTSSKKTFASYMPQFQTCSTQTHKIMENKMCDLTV
Test: Luciferase reporter gene assay (3(G3)-Cy6-LUC), leptin stimulation of COS cells expressing wild type OB-R
Assay type: cell-based
Details: 100 ng/ml leptin for 24 hours, stimulated vs non-stimulated
Method: The cytoplasmic domain and full-length human OB-R was cloned by PCR using human fetal liver and adipocyte cDNA (Clontech) and cloned into the expression vectors pCMX and pMT21. Chimeric receptors were constructed by fusing the extracellular domain and transmembrane domain of TrkC (amino acids 1 to 458) to the cytoplasmic domain of OB-R (amino acids 865-1165). A triple myc epitope tag was added at the C-terminus of all OB-R constructs (18). Truncation and point mutant constructs were generated by PCR and the sequences of all constructs were verified. Expression constructs were transfected into COS-7 cells using lipofectamine (GIBCO-BRL); 36-48 hours after transfection, cells were starved for either 2 hour,s for chimeric receptors or overnight for full-length receptors prior to stimulation.
Expression constructs (1 μg) for OB-R, OB-RY1141F, OB-RY986F, OB-RY1078, 1079F, and OB-RY986, 1141F were co-transfected with 1 μg of 3(G3)-Cy6-LUC and 0.1 μg of pCMX.LacZ into COS-7 cells (6-well dishes) using lipofectamine. The day after transfection, media was changed to serum-free OptiMEM (GIBCO-BRL) and then treated with 100 ng/ml murine leptin (PeproTech) or human leptin (R&D Systems) for 24 hours. […] Luciferase and β-galactosidase activities were measured in cell lysates (30) and luciferase activity was normalized to β-galactosidase activity to control for transfection differences. […]

- induction of luciferase activity: 6 fold
Substance: leptin: the product of the obese gene, secreted by adipocytes; ligand of OB-R
